The data set concerns the molecule itself. As to the kind of experiment: FRET or BRET.

B1: full-length FGFR3 C228R mutant (CHO) (receptor)
chain: ESLGTEQRVVGRAAEVPGPEPGQQEQLVFGSGDAVELSCPPPGGGPMGPTVWVKDGTGLVPSERVLVGPQRLQVLNASHEDSGAYSCRQRLTQRVLCHFSVRVTDAPSSGDDEDGEDEAEDTGVDTGAPYWTRPERMDKKLLAVPAANTVRFRCPAAGNPTPSISWLKNGREFRGEHRIGGIKLRHQQWSLVMESVVPSDRGNYTRVVENKFGSIRQTYTLDVLERSPHRPILQAGLPANQTAVLGSDVEFHCKVYSDAQPHIQWLKHVEVNGSKVGPDGTPYVTVLKTAGANTTDKELEVLSLHNVTFEDAGEYTCLAGNSIGFSHHSAWLVVLPAEEELVEADEAGSVYAGILSYGVGFFLFILVVAAVTLCRLRSPPKKGLGSPTVHKISRFPLKRQVSLESNASMSSNTPLVRIARLSSGEGPTLANVSELELPADPKWELSRARLTLGKPLGEGCFGQVVMAEAIGIDKDRAAKPVTVAVKMLKDDATDKDLSDLVSEMEMMKMIGKHKNIINLLGACTQGGPLYVLVEYAAKGNLREFLRARRPPGLDYSFDTCKPPEEQLTFKDLVSCAYQVARGMEYLASQKCIHRDLAARNVLVTEDNVMKIADFGLARDVHNLDYYKKTTNGRLPVKWMAPEALFDRVYTHQSDVWSFGVLLWEIFTLGGSPYPGIPVEELFKLLKEGHRMDKPANCTHDLYMIMRECWHAAPSQRPTFKQLVEDLDRVLTVTSTDEYLDLSAPFEQYSPGGQDTPSSSSSGDDSVFAHDLLPPAPPSSGGSRT
B1: the “stoichiometry N” value came to 2.

The values above are taken from publication PMC5474753 (Journal of molecular biology, 2016).
